Assay [1] has as its target T1, human Fc gamma receptor IIb (FcγRIIb/CD32b) (Homo sapiens, UniProt P31994).
T1 sequence (P31994 43-310): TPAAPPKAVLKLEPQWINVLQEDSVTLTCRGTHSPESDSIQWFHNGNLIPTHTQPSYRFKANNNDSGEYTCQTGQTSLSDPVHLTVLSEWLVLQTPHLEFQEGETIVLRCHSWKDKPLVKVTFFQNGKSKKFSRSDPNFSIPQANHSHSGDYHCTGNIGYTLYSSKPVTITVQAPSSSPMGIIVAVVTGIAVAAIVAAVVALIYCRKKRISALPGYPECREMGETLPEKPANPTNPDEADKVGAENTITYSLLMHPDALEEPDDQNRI
The assay is described as follows: Human FcγR binding ELISA, FcγRIIb (Example 8). The note with it: antibody coated on plate, soluble receptor titrated, read-out: FcγRIIb (CD32b) binding affinity. On the procedure:
(§1) The interaction of the unmodified and of conjugated antibodies with human Fc gamma receptors I (FcγRI/CD64), with human Fc gamma receptors IIa (FcγRIIa/CD32a), with inhibitory human Fc gamma receptors IIb (FcγRIIb/CD32b), and with human Fc gamma receptors III FcγRIIIa/CD16 were measured by ELISA.
(§2) Briefly, Corning high-binding half-area plates (Fisher Scientific, Reinach, Switzerland) were coated overnight at 4° C. with 25 μl of unmodified and of conjugated anti-PD1 antibodies at 2.5 μg/ml in PBS. Plates were then washed four times with 100 μl of PBS-0.02% Tween20. Plates surfaces were blocked with 25 μl of PBS-0.02% Tween20-1% BSA at 37° C. during 1 h. Plates were then washed four times with 100 μl of PBS-0.02% Tween20. Then twenty-five microliters of either recombinant Human Fc gamma RI/CD64 Protein (R&D systems, 1257-FC-050, CF), recombinant Human Fc gamma RIIA/CD32a (H167) Protein (R&D systems, 9595-CD-050, CF), recombinant Human Fc gamma RIIB/CD32b Avi-tag Protein (R&D systems, AVI1875-050, CF), or recombinant Human Fc gamma RIIIA/CD16a Protein (R&D systems, 4325-FC-050; CF) were added in five-fold serial dilutions ranging from 1000 nM to 0.001 nM into PBS-0.02% Tween20-0.1% BSA and incubated at 37° C. during 2 h. Plates were then washed four times with 100 μl of PBS-0.02% Tween20. Twenty-five microliters of a 1/500 HRP-anti-His antibody in PBS—0.02% Tween20-0.1% BSA (R&D systems, anti-HIS—HRP Ab, #MAB050H) were added to each well and plates were incubated at Room Temperature during 1 h. Plates were then washed four times with 100 μl of PBS-0.02% Tween20. Fifty microliters of TMB substrate reagent (#CL07, Merck, Buchs, Switzerland) were added to each well and incubated at 37° C. during 5 min. After 5 min at 37° C., Horseradish peroxidase reaction was stopped by adding 50 μl/well of 0.5M H2SO4 stop solution. ELISA signal was then measured at 450 nm on an EnSpire plate reader from Perkin Elmer (Schwerzenbach, Switzerland).
In general terms: In an ELISA, binding on a coated surface is turned into a signal by an enzyme label.

The target in assay [2] is human neonatal Fc receptor (FcRn) (Homo sapiens, UniProt P55899). The assay is described as follows: Human FcRn binding AlphaLISA at pH 6 (Example 9). The note with it: AlphaLISA competition. Here is the method:
The interaction of the unmodified and of conjugated anti-PD1 antibodies with the human neonatal Fc receptor (FcRn) at pH 6 was measured using the AlphaLISA® Human FcRn Binding Kit (AL3095C) from Perkin Elmer (Schwerzenbach, Switzerland). […] When reference IgG binds to FcRn, donor and acceptor beads come into proximity enabling the transfer of singlet oxygen that trigger a cascade of energy transfer reactions in the acceptor beads, resulting in a sharp peak of light emission at 615 nm. Addition of a free IgG antibodies into the AlphaLISA® mixture creates a competition for the binding of FcRn to the reference antibody resulting in a loss of signal.
After 90 min at 23° C. in the dark, AlphaLISA® signal was measured on an EnSpire plate reader (Excitation at 680 nm, Emission at 615 nm) from Perkin Elmer (Schwerzenbach, Switzerland).
(Alpha assays give light when donor and acceptor beads are brought close together.)

Assay [3] deals with human Fc gamma receptor I (FcγRI/CD64) (Homo sapiens, UniProt P12314). The assay is described as follows: Human FcγR binding ELISA, FcγRI (Example 8). As to conditions: antibody coated on plate, soluble receptor titrated, read-out: FcγRI/(CD64) binding affinity. Here is the method:
as §1, §2

The target of assay [4] is human Fc gamma receptor III FcγRIIIa/CD16. Kind of assay: Human FcγR binding ELISA, FcγRIIIa (Example 8). As to conditions: antibody coated on plate, soluble receptor titrated, read-out: FcγRIIIa (CD16) binding affinity. On the procedure:
as §1, §2

The target in assay [5] is T2, human Fc gamma receptor IIa (FcγRIIa/CD32a) (Homo sapiens, UniProt P12318).
T2 sequence (P12318 36-218): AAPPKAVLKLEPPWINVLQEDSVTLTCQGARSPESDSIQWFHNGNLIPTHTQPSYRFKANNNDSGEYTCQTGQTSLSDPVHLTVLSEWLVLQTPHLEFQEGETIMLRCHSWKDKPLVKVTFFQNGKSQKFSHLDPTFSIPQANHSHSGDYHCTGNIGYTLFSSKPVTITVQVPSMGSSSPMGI
The assay is described as follows: Human FcγR binding ELISA, FcγRIIa (Example 8). The note with it: antibody coated on plate, soluble receptor titrated, read-out: FcγRIIa (CD32a) binding affinity. On the procedure: as §1, §2

The next assay has as its target human PD-1/CD279 (Homo sapiens, UniProt Q15116). The assay is described as follows: PD-1 binding ELISA (Example 5). As to conditions: coated antibody or immunocytokine, biotinylated human PD-1/CD279-Fc. Here is the method:
The interaction of the unmodified antibodies and corresponding IL-18 immunocytokines with relevant immune cell associated antigen are measured by ELISA assay. For these studies, Corning high-binding half-area plates (Fisher Scientific, Reinach, Switzerland) are coated overnight at 4° C. with 25 μl of unmodified antibodies corresponding IL-18 immunocytokines at 5 μg/ml in PBS. Plates are then washed four times with 100 μl of PBS-0.02% Tween20. Plate surfaces are blocked with 25 μl of PBS-0.02% Tween20-1% BSA at 37° C. during 1 h. Plates are then washed four times with 100 μl of PBS-0.02% Tween20. […] Plates are then washed four times with 100 μl of PBS-0.02% Tween20. Twenty-five microliters of Streptavidin-Horseradish peroxidase (#RABHRP3, Merck, Buchs, Switzerland) diluted at 1:500 into PBS-0.02% Tween20-0.1% BSA are added to each well and incubated at Room Temperature during 30 min. Plates are then washed four times with 100 μl of PBS-0.02% Tween20. Fifty microliters of TMB substrate reagent (#CL07, Merck, Buchs, Switzerland) are added to each well and incubated at 37° C. during 5 min. After 5 min at 37° C., Horseradish peroxidase reaction is stopped by adding 50 μl/well of 0.5M H2SO4 stop solution. ELISA signal is then measured at 450 nm on an ENSPTRE® plate reader from Perkin Elmer (Schwerzenbach, Switzerland).

Bounds are passed on as bounds.

Sequence of human Fc gamma receptor I (FcγRI/CD64) (P12314 16-374): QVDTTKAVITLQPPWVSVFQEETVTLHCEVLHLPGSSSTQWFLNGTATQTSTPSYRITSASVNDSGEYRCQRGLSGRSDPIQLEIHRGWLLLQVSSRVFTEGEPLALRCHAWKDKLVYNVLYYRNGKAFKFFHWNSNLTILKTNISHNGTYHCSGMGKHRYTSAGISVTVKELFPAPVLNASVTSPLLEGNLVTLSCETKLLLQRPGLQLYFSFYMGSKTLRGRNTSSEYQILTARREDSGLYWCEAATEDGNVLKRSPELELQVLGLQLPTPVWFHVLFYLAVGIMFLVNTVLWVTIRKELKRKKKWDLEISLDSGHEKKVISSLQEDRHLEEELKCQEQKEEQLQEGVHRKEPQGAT
Sequence of human Fc gamma receptor III FcγRIIIa/CD16 (P08637 17-254): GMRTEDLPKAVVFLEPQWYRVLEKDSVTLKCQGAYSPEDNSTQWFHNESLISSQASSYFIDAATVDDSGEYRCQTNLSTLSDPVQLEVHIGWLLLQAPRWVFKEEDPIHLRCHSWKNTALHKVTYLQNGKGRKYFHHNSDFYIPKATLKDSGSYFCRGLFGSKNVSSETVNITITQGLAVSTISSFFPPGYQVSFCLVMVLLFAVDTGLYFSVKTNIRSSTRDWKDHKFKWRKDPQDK
Sequence of human neonatal Fc receptor (FcRn) (P55899 24-297): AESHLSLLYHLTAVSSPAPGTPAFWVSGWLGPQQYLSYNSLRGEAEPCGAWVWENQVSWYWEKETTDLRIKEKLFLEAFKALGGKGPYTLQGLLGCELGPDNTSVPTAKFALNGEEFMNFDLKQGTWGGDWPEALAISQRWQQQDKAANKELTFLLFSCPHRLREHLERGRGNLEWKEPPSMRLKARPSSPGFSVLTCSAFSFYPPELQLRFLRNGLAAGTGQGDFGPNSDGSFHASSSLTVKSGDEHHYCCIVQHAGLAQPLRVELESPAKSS
Sequence of human neonatal Fc receptor (FcRn) (P61769 21-119 partner): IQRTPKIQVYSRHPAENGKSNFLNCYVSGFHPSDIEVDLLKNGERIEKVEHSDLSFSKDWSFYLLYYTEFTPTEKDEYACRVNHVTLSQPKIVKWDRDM
Sequence of human PD-1/CD279 (Q15116 25-288): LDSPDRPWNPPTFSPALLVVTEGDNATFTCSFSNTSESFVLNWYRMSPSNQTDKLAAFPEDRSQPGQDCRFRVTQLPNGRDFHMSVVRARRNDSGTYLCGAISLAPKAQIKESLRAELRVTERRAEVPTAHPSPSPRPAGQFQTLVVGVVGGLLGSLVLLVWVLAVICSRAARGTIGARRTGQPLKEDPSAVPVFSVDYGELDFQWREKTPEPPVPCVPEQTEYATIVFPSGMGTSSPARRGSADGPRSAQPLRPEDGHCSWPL

On to “LZM-009: anti-PD-1 antibody (VH SEQ ID NO: 376, VL SEQ ID NO: 377), unconjugated reference antibody [reference compound]”, for which the Kd worked out at 2630 nM in assay [1]; 6 nM in assay [2]; 0.315 nM in assay [3]; 1710 nM in assay [4]; 1350 nM in assay [5].
With “Composition B: immunocytokine: Atezolizumab/Tecentriq (anti-PD-L1) conjugated to IL-18 polypeptide SEQ ID NO: 30”, the Kd is above 10000 nM in assay [1]; 10.8 nM in assay [3]; 492 nM in assay [4]; above 100 nM in the assay with human PD-1/CD279; 1740 nM in assay [5].
In the case of “Atezolizumab/Tecentriq: anti-PD-L1 antibody, unconjugated reference antibody [reference compound]”, the Kd is above 10000 nM in assay [1]; 6.4 nM in assay [2]; 9.17 nM in assay [3]; 356 nM in assay [4]; above 100 nM in the assay with human PD-1/CD279; 1370 nM in assay [5].

The record behind these values is patent US12383631B2, “Immune antigen specific IL-18 immunocytokines and uses thereof” (Bright Peak Therapeutics AG, priority 2022, dated 2025).
